# Assay results reported in patent publication US20260193644A1, “Compositions and Methods For Modulation of Tumor Suppressors and Oncogenes” (FLAGSHIP PIONEERING INNOVATIONS VII, LLC, priority 2022, published 2026).
# Key:
# [1] = test system: NAMALWA cells; assay: Chemotaxis assay (trans-well cell migration); type: cell-based; conditions: NAMALWA human Burkitt lymphoma cells; 24 hours; SDF-1 (CXCL-12)
# Experimental: Chemotaxis Assay: NAMALWA cells (human Burkitt lymphoma cell line, ATCC) were cultured in serum-free ATCC formulated RPMI for 24 hr prior to the assay. After starvation, harvest cells and centrifuge at 1,000×g, for 5 minutes to pellet them. Resuspend the cell in a serum-free media. Using Cell Migration/Chemotaxis Assay Kit (96-well, 8 μm) from Abcam, add 150 μL of serum-free media containing desired chemoattractant to the bottom chamber. Then add 50,000 cells and desired inhibitor (or peptides) to each well of the top chamber. Place the plate and incubate at 37° C. in CO2 incubator for 24 hours. After incubation, add 110 μL of Cell Dye+Cell Dissociation Solution mix to each bottom well and incubate at 37° C. in CO2 incubator for an hour. After incubation remove the top chamber and read the plate at Ex/Em=530/590 nm.
# [2] = target: CXCR4 (Homo sapiens, UniProt P61073); assay: PathHunter β-Arrestin CXCR4 human chemokine GPCR antagonist assay (gpcrMAX screening and hit-confirmation); type: cell-based; conditions: for % inhibition: hit-confirmation
# Sequence of CXCR4 (P61073 whole entry): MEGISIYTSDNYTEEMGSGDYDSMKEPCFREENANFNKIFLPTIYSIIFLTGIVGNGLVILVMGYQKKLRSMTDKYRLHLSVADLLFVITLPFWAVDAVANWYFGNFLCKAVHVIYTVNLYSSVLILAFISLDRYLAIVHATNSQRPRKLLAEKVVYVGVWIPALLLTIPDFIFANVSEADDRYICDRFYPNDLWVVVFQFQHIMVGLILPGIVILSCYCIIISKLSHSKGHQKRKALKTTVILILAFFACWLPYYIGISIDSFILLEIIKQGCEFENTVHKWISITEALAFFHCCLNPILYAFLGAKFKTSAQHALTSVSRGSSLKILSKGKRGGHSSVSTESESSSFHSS
# Experimental: SEQ ID NO: 30949 blocks CXCR4 and cancer cell migration, making it suitable in the treatment of multiple cancers. Whereas SEQ ID NO: 34229 agonizes C3AR1, a key regulator of immune response and inflammation. The target proteins SEQ ID NO: 30949 and SEQ ID NO: 34229 were treated with gpcrMAX, which is a comprehensive panel covering 168 G protein-coupled receptors (GPCRs) from over 60 distinct receptor families. This panel utilizes PathHunter® β-Arrestin technology (Eurofins DiscoverX). PathHunter β-Arrestin GPCR cell lines are engineered to co-express the ProLink™ (PK) tagged GPCR and the Enzyme Acceptor (EA) tagged β-Arrestin. Activation of the GPCR-PK induces β-Arrestin-EA recruitment, forcing complementation of the two β-galactosidase enzyme fragments (EA and PK). The resulting functional enzyme hydrolyzes substrate to generate a chemiluminescent signal.
# Cell Handling: PathHunter® cell lines were expanded from freezer stocks according to standard procedures. Cells were seeded in a total volume of 20 μL into white walled, 384-well microplates and incubated at 37° C. for the appropriate time prior to testing. […]
# Signal Detection: Assay signal was generated through a single addition of 12.5 or 15 μL (50% v/v) of PathHunter® Detection reagent cocktail, followed by a one-hour incubation at room temperature. Microplates were read following signal generation with a PerkinElmer Envision™ instrument for chemiluminescent signal detection.
# Data Analysis: Compound activity was analyzed using CBIS data analysis suite (ChemInnovation, CA). For agonist mode assays, percentage activity was calculated using the following formula: % Activity=100%×(mean RLU of test sample−mean RLU of vehicle control)/(mean MAX control ligand−mean RLU of vehicle control). For antagonist mode assays, percentage inhibition was calculated using the following formula: % Inhibition=100%×(1−(mean RLU of test sample−mean RLU of vehicle control)/(mean RLU of EC80 control−mean RLU of vehicle control)).
substance,measurement,setting,value
SEQ ID NO: 30949: novel peptide GPCR ligand that blocks CXCR4; sequence only in Sequence Listing (MTAFGLGIPTFLVMQPSGSQPRFPALTQNGVALVRTPLTSVYLRVRICRVLGPRSQPS; listed as Homo sapiens),chemotactic migration,[1],significantly inhibit the chemotactic migration
same,GPCR ligand mode at CXCR4,[2]; gpcrMAX panel,blocked CXCR4
same,% inhibition,[2]; 0.3 μM,~ 80%
same,% inhibition,[2]; 1 μM,~ 80%
